The DeepSol protein solubility set

Assay: soluble on expression in E. coli; label from the status in PepcDB or PDB records

Sequence | soluble on expression in E. coli
MYFVDRSKIEKTLGFFEHQLALFDSQTDWQSEIGELALQRIGHLLIECILDTGNDMIDGFIMRDPGSYDDIMDILVDEKVVTEKEGDELKKLIAYRKTLVQQYLLADSGELYRLIKAHQTALQDFPKRIRSYLETELGPVSAFKLEHHHHHH | soluble
MYGEGDFYTIKSKRDYEFYLEADRLALGKNCKKPRLIGDDIWKFQRLLRQAEYYSNCQNSLLHKLYLKYILFRFHRMSIRLGFSIPINVFGPGLCIAHRGTIVVNKGARVGENCRIHACTNIGSGRDNIFLAPKIGNGVYIGPGAKIFGSVEIADNIAIGANSVVNRSFYERGISIAGVPAKKISNKGSDGMVIAATKTVSVPVSQETILEHHHHHH | soluble
MYKWLLSVLLVLMSTVVHAADCFDLAGRDYKIDPDLLRAISWKESRNRANAVGINPVTGYGSGLMQVDSQHFNELARYGIKPEQLVSDPCLNIYTGAYYLAIAFRKWGVSWTAVGAYNAGFKKTPLQDARRLDYATDVHRIWIAIKQSKTRQTPAR | not soluble
MYLHGTSRINGQGHLEIGGCDTTQLAKQYGTPLYVYDEGSIRGKCRAFHRAFKESGFSYQVAYASKAFLCMEMCRVAREENMSLDVVSGGELYTALQAGFPASRIHFHGNNKTEEEIVMALQANIGCFVVDNFFELEVLHDLAMQHGKFVNILIRVTPGVEAHTHEYITTGQDDSKFGFGVSNGQAMQAIGLALQKSNYNVLGIHSHIGSQIFETAGFVRAIEVLRQFLEEVREQTNYVVKVLNVGGGFGIRYTESDTPLTLETYVRAVTSAVREQFTVCEYPLPEIWIEPGRSIVGDAGTTIYTVGSVKDIPGIRKYVSVDGGMTDNLRPALYNARYEAMLANRANDENEELVSIAGKCCESGDMLIWDIHLPKVAASDLLAVSCTGAYGYSMANNYNRIRRPAVVFAKGGTSQVVVERETYENIIGNDRIRIKELV | not soluble
MYLLRINIEGTINYGLYKYLYPALKAAEGKKSIAGLILVFNSGGGDAASSQLIHDLVKKIRKKKPVYSLALGICASGAYWIASASTKIYAIDTSLIGSIGVISIRPNVKKLMEKIGVDVMVYKSGKYKDMTSPFSEPNEEEKSVYQRLLDDIFEKFKRSVAEDRGIPSEKIDEIANGMVYSAKMAADNGLIDRIANYDDLVSDLTKEVGKRLKVKEFYIRKPLLQRLLGILEHHHHHH | not soluble
MYLQPKKVRWRKQRRGTLKGKAFRGNKLAFGEYGIQALDRAWITQQQIEAVRVALVRSLKKGAKVWIRIFPDKPYTKKPNEVRMGGGKGDPEGFVAVVKPGRILFEFTGVPEEVAQEAFTIAASKLPIPVRLVKYGEFTFKYLEHHHHHH | not soluble
MYNVTQHATYKTKNKRETAVLIGVHAQTDRQFNFESTMEELDALSQTCQLNVKGQITQNREQFDHKYYVGKGKIDEIKSFIEFHDIDVVVTNDELTTAQSKTLNDNLGIKIIDRTQLILEIFALRARSREGKLQVELAQLDYLLPRLHGHGKSLSRLGGGIGTRGPGETKLEMDRRHIRTRMNEIKHQLKTVVDHRERYRNKREQNQVFQIALVGYTNAGKSSWFNVLANEETYEKNILFATLDPKTRQIQVNEGFNLIISDTVGFIQKLPTTLVAAFKSTLEEAKGADVLMHVVDASHSEYRTQIDTVNQIINDLDMDHIPQVVIFNKKDLCNEQMDVPVSKSAHVFVSSRDENDKQKVKNLVIQEIKNSLSPYEEIVDSADADRLYFLKQHTLVTELIFDETQASYRIKGFKKLLEHHHHHH | not soluble
MYPIKYVENNLVFNQEGECFAYYELVPYNYSFLSPEQKYQVHDNFRQLIAQNREGKIHALQIATESSIRATQERSKKEITGRLKEVAKQRIDLQTDALVSMIGDSQIDYRFFIGFKLIATDEEVNLKSLKKSFLSGLQEFVYGVNHHLMGDFVSLSNEEIRRYTKLEKLMESKLARRFKVRRVTPSDLTYLIEHIYGEKGTPFEEYEFQLPKKKLKSETLVKRYDLLHPSRCLIEENPRYLRMEHENHESYVAYLTINTIVGEMEFPSSELFYYQQQQFTFPIDTSMNVEIVTNKKALATVRNKKKELKDLDNHAYQSDNETNSNVLDALDSVNELETTLDQSKESMYKLSYVVRVSAESVDELKRRCDEVFDFYDDTNVKLVRPFGDMMGLHEEFLPSSKRYMNDYIQYVTSDFLAGLGFGATQKLGELEGIYFGYNVDTGRNVYLKPALASQGVKGSVTNALAAAFLGSLGGGKSFSNNLLVYYAVLFGGQAVIVDPKGERGGWKENLPEIADEINILNLTSKPENQGLLDPYVIMKKKKDSESLAIDILTFLTGISSRDGEKFPVLRKAIRTVTQSDQRGLLQVINELRKENSPVAENIADHIESFTDYDFAHLLFSDGSITQSISLDKQLNIIQVADLVLPDAETTFEEYTTMELLSVSMLIVISTFALDFIHSNREIFKIVDLDEAWSFLQVAQGKTLSNKLVRAGRAMNAGVYFVTQNSDDLLDERLKNNIGLKFAFRSTDIHEIKKTLEFFGLDQEDESNQKRLRDLENGQCLMQDLYGRVGVVQVHPVFEELFHAFDTRPPVQERME | not soluble
MYPLNIDGEELYLRDLKINDLPNLLKWYNNIDDFSLATGVYKPITLKEILERYFKCQSSSKDFFAGIYIRKSGEMIGVLKGWLDCEKDLSAWINSIIIDPGFQRKGYGSKTVNLFIRHVKECCNVKRVYLSVAEENFKGMSFWKQQSFREVKKISKDRDSVSKCKSIVIMCREI | not soluble
MYQEFFTFIPVDIEELDKAFGGGLIRGATISIMYDAFSLGWALGFEMVKNLIRRNSFGVIHNYNLPTIKLISRASFVGLNIQELAKRKEIMILDVFGSKYDVPPYADYVLQVPNPTPETLNPKIESVYENKIFQVAGDRRIVKLVYTLDGVATMFGEEVAIKLLNGELAWLAKMYGKRNVMTILLLNVDMVSKKFIAWTSGVSDIVITFQSLTEEREGELVERMTVIKSLNPEFEPTSYEFRVTATGTGSHALDFRKIENKRDK | soluble
MYRLERTQRLPISIDEAWDFFASPDNLKKITPAYMGFDIKSGGGIPMYAGMIIKYTVRPLLGIPMTWVTEITHVEPQRFFVDEQRVGPYAIWHHQHHFKAIENGVEMTDILHYKLPFGILGNLAHPFLVKNKLEEIFNFRNKKMVELFGTYKLEHHHHHH | soluble
MYRVFECFDELIDILEKSTGVPMTSNCMVPRHHMLALIDEARNALPNEIDDAQDVIDQQDEILRGAQERARTTIDEANEEARRTVTQSREEADALVADAEEHAERVVRQAQDEADRLVDGARREADDTVNRAQAEAERLIASGNDQYQRSVDDGLAEQQRLVSEAEVVRRANEEAHRVVDAAHADSNRLRKECDTFVENKLADLEESLSSTLRTISRDRAALRRGAGASGGGNHSQS | not soluble
MYSCTSPSGIKVSLSTPEIWEEFYPKTEMIVTRNRGRVIFPHLDYIIKGLDPGSLYSIYIHLERVDGIKYKFDAGEWKEFAKGDPILPIQYKEHPRGKRTGAEWMSEPVSFAHIKITNNPEIKDQKVILVQSMHKHIPVVTVKQVRHYKTGYQEDFSGEQFRLEATEFMVVTAYQNEILKNLKVHHNKFASGFRSNGKRRLSSDSENSENSPPKRSKLVTPPTISPQIDLPQQTPYYFNQNFVAPQNYQPQFASAQNYNFEVQNNAQLAWNMYYQKQYEFWWQQQQMMMPGQPQELKNEFQSL | not soluble
MYSDKVFDHFQNPRNVGKIEDADGVGTVGNPVCGDLMTIYIKVKDNRIEDIKFQTFGCAAAIATSSMATEMAKGKTIEEALKITRDAVAEALGGLPKQKMHCSNLAADALRRAIVDYFRKNGKIDKIKELGLEKELEKMEKGEMDDHGEYCEA | not soluble
MYSEERRRQIASLTAVEGRVNVTELAARFDVTAETIRRDLAVLDREGVVHRVHGGAVANQTFQTAEFSLDTRSRSASGAKNSIAHAALSYLPEAQGGLFLDAGTTTAALAELLAAQPFAKHWSIVTNSLSIALTLANSGLDEIQLLGGSVRAITQAVVGDTALRTLALMRADVAFIGTNALTIDHGLSTADSQEAAIKSAMITNAHKVVVLCDSTKMGTDYLVSFGSISDIDVIITDANAPESFVKALRDRDVEVIIALEHHHHHH | soluble
MYSLIRHGRSLVELQKWRHLRVLVQKASPLSNSFSSASAARLSPRVGRKGKSFTVSYLVDSLGLPKKLAESVSRKVSFEDKDNPDSVLNLLRSHGFTDSQISTIVTDYPQLLVADAEKSLAPKLQFLQSRGASSSELTEIVSTVPKILGKRGHKTISVFYDFIKETLLDKSSKSEKSCQPFPQGNLENKIRNLSVLRELGMPHKLLFPLLISCDVPVFGKEKFEESLKKVVEMGFDPSTSKFVEALCVVQRLSDKNIEDKVNAYKRLGFDVEYVWTVFKRWPNFLTHSEKKILNTIETFLGLGFSRDEFSVLIKRFPQGIGLSAEMVKKKTEFLVKKMNWPLKALVSNPAVLGYSLEKRTVPRGNVVQALISKGLIGSELPSISRVFVCTDQVFLNRYVKRHEDKQLETELMAIYRAS | soluble
MYSLLTLLFVLFFSGSTLLVQCGGKKKGATSAEGKSSTMGPAPGGAPAAASAQGEPEEKE | not soluble
MYSYKHPIYCANPVLSGQKIIELPPMNVPFSTYYEVYVTVQDHIPISSFVSMDLIMKNDNYSGGNFQVYSKDVSGILASHSNHFSPVTYSMQLQYEYKNWAEEDTQVRVYSDRLPPYWLPYCD | not soluble
MYVTVTEAAYKKIMDTIPSEAKYIKLFYDNEGCGCVMSGIIDLVAVAEKDERDVDIESSTMNFIADRTKLVFMDDKLTVDWHEGGGTFQLKSPSQFYNPNMKLHVRVLEHHHHHH | soluble
MYVVINIDPGSTLNELMAFMTQKTITFSVTDQLSRLCDRTANGDRREVCTQTDDNCFDPPPNKKSKGYNGEDYGSPCSSATPSEPVDLGILTKTNGNSNGNHNWDTESKVLRGLIRSENGRSKSSIKEEPEEASVEDDISTEYMQNQLMQALFPKNQNGSGLANFASLEDNESIEGESGGLSDLGGFNMDSSSPASAIRYKPAYASTKRGVCRVCNREVSLITTHRRRHAITHLGFKTLKCALCYKFFSRQDLATGHFKKDHPTSEFMPFVDTMSPEDERQLVVMMELCFPEETGPRKRKDTDPKKQKVGEVEDSF | not soluble
MYYGALSIRAEAWLIVSPEVTKIMAKEQTDRTTLDLFAHERRPGRPKTNPLSRDEQLRINKRNQLKRDKVRGLKRVELKLNAEAVEALNELAESRNMSRSELIEEMLMQQLAALRSQGIV | not soluble
NAMPPIIKRRVMRKIIIASQNPAKVNAVRSAFSTVFPDQEWEFIGVSVPSEVADQPMSDEETKQGALNRVRNAKQRHPGAEYYVGLEAGIEENKTFAWMIVESDQQRGESRSACLMLPPLVLERLRQAKELGDVMDEVFGTENIKQKGGAIGLLTRHHLTRSTVYHQALILALIPFINPEHYPSA | soluble
NDEDCRNIYRYSPKDRKFEKLNLETDVTSAFAMSENNPSLAAYIGQGCYNAGVAYVYDLKKKTSRLIADPMKPTLERIELGEMKPWNFTASDGTEIKGMMCLPPSFDPNKKYPLIVYYYGGTTPTERGISNPYCAQLFASRDYVVYVIQPSGTIGFGQEFSARHVNAWGKRTADDIIEGTKQFCKEHPFVNDKKIGCLGASYGGFMTQYLQTQTDIFAAAVSHAGISNVTSYWGEGYWGYGYNAIAAADSYPWNNPELFTKQGSLFNADKINTPLLLLHGTVDTNVPIGESIQLFNALKILGKTVEFITVDGENHFIADYPKRMQWHNSIMAWFARWLQ | not soluble
NDIYNNAITPYLNKETGYQEMFQRVNTRIREFMINELKNHHNEDNVFMLAKNSGIEIAKIEEAPNAVLIPAFVLGELEVAFK | not soluble
